Laboratory results reported in publication PMC7491322, “Molecular basis for the distinct cellular functions of the Lsm1–7 and Lsm2–8 complexes”.

Columns and labels:
Lsm1Δ56C-7 [1] = target: T1, Lsm1Δ56C-7 (Schizosaccharomyces pombe, UniProt P87173;O94408;Q9Y7M4;O14352;O42978;Q9UUI1;O74499 …); test: X-ray crystallography; 2.1 Å; FP: 100 mM NaCl, 20 mM Tris pH 8.2 (final ~8), 10 mM MgCl2, 1 mM TCEP, 1 mM Na azide, 0.1 mg/mL each tRNA, BSA and heparin; temperature not stated; 1 nM RNA final; Hill fixed at 1; conditions: protein: recombinant; tags: as P2; copies: 1;1;1;1;1;1;1; single-stranded
Lsm1-7 [2] = target: T2, Lsm1-7 (Schizosaccharomyces pombe, UniProt P87173;O94408;Q9Y7M4;O14352;O42978;Q9UUI1;O74499 …); test: fluorescence polarization; FP: 100 mM NaCl, 20 mM Tris pH 8.2 (final ~8), 10 mM MgCl2, 1 mM TCEP, 1 mM Na azide, 0.1 mg/mL each tRNA, BSA and heparin; temperature not stated; 1 nM RNA final; Hill fixed at 1; conditions: protein: recombinant, tags: Lsm4 C-term strep-II (as for Lsm2-8), Lsm7 untagged, GST (Lsm3) and MBP (Lsm6) with TEV sites, TEV treated, copies: 1;1;1;1;1;1;1, label: 5'-FAM
Lsm1Δ56C-7 [3] = target: T1, Lsm1Δ56C-7; test: as above; conditions: protein: recombinant, tags: as P2, copies: 1;1;1;1;1;1;1, label: 5'-FAM
Lsm1-7 [4] = target: T2, Lsm1-7; test: as above; conditions: protein: recombinant; tags: Lsm4 C-term strep-II (as for Lsm2-8); Lsm7 untagged; GST (Lsm3) and MBP (Lsm6) with TEV sites, TEV treated; copies: 1;1;1;1;1;1;1; label: 5'-FAM; single-stranded
Lsm1-7 (Lsm5 N66A/N68A) = Lsm1-7 (Lsm5 N66A/N68A) (Schizosaccharomyces pombe, UniProt P87173;O94408;Q9Y7M4;O14352;O42978;Q9UUI1;O74499 …, N66A;N68A;Lsm5); test: as above; conditions: protein: recombinant; tags: as P2; copies: 1;1;1;1;1;1;1; label: 5'-FAM; single-stranded
Lsm2-8 [5] = target: T3, Lsm2-8 (Schizosaccharomyces pombe, UniProt O94408;Q9Y7M4;O14352;O42978;Q9UUI1;O74499;O74483 …); test: as above; conditions: protein: recombinant; tags: Lsm4 C-term strep-II; Lsm7 C-term His6; GST (Lsm3) and MBP (Lsm6) with TEV sites, TEV treated; copies: 1;1;1;1;1;1;1; label: 5'-FAM; single-stranded
Lsm2-8 [6] = target: T3, Lsm2-8; test: X-ray crystallography; 1.9 Å; FP: 100 mM NaCl, 20 mM Tris pH 8.2 (final ~8), 10 mM MgCl2, 1 mM TCEP, 1 mM Na azide, 0.1 mg/mL each tRNA, BSA and heparin; temperature not stated; 1 nM RNA final; Hill fixed at 1; conditions: protein: recombinant; tags: Lsm4 C-term strep-II; Lsm7 C-term His6; GST (Lsm3) and MBP (Lsm6) with TEV sites, TEV treated; copies: 1;1;1;1;1;1;1; single-stranded
Lsm1Δ56C-7 [7] = target: T1, Lsm1Δ56C-7; test: X-ray crystallography; 1.8 Å; FP: 100 mM NaCl, 20 mM Tris pH 8.2 (final ~8), 10 mM MgCl2, 1 mM TCEP, 1 mM Na azide, 0.1 mg/mL each tRNA, BSA and heparin; temperature not stated; 1 nM RNA final; Hill fixed at 1; conditions: protein: recombinant; tags: as P2; copies: 1;1;1;1;1;1;1; single-stranded
Lsm2-8 [8] = target: T3, Lsm2-8; test: X-ray crystallography; 2.3 Å; FP: 100 mM NaCl, 20 mM Tris pH 8.2 (final ~8), 10 mM MgCl2, 1 mM TCEP, 1 mM Na azide, 0.1 mg/mL each tRNA, BSA and heparin; temperature not stated; 1 nM RNA final; Hill fixed at 1; conditions: protein: recombinant; tags: Lsm4 C-term strep-II; Lsm7 C-term His6; GST (Lsm3) and MBP (Lsm6) with TEV sites, TEV treated; copies: 1;1;1;1;1;1;1; single-stranded
[9] = 5' hairpin, single-stranded 3' end

AUUUUG (ssRNA)
binding result (Lsm1Δ56C-7 [1]): binds

GGCACUUCGGUGCCCCCCAUUUUA (structured_RNA) [5' stem-loop RNA with UUUUA site]
Kd (Lsm1-7 [2]; [9]): 70 nM | Kd (Lsm1Δ56C-7 [3]; [9]): 32 nM

CCCCCUUUUUA (ssRNA)
Kd (Lsm1-7 [2]; single-stranded): 29.7 nM | Kd (Lsm1Δ56C-7 [3]; single-stranded): 13 nM

UUUUUUUUUUUUUUU (ssRNA) [U15]
binding result (Lsm1-7 [2]; single-stranded): binds

UUUUUUUUUUUUUAA (ssRNA) [U13AA]
binding result (Lsm1-7 [2]; single-stranded): binds

ACCCAUUUUU (ssRNA, 2',3' cyclic phosphate) [cyclic phosphate oligoU RNA (Lsm1-7 assays)]
binding signal (Lsm1-7 [4]): ~14 fold weaker than N4 | binding signal (Lsm1-7 (Lsm5 N66A/N68A)): ~7 fold weaker than adenosine-terminated RNA

ACCCAUUUUU (ssRNA) [U6 3' tail, 3'-OH]
Kd (Lsm2-8 [5]): 100 nM

ACCCAUUUUUA (ssRNA) [3' monoadenylated oligoU RNA]
binding result (Lsm2-8 [5]): binds

ACCCAUUUUU (ssRNA, 2',3' cyclic phosphate) [U6 3' tail, 2',3' cyclic phosphate]
Kd (Lsm2-8 [5]): 26 nM

UUUUU (ssRNA) [UUUUU-3'-OH]
binding result (Lsm2-8 [6]): binds

UUUUUACCCCC (ssRNA)
Kd (Lsm1-7 [2]; single-stranded): 189 nM | Kd (Lsm1Δ56C-7 [3]; single-stranded): 34 nM

UUUUUUUUUUUUUUA (ssRNA) [U14A]
binding result (Lsm1-7 [2]; single-stranded): binds

AAAAAAAAAAAAAAA (ssRNA) [A15]
binding result (Lsm1Δ56C-7 [3]; single-stranded): no binding

UUUUUA (ssRNA)
binding result (Lsm1Δ56C-7 [7]): binds

UUUUU (ssRNA, 2',3' cyclic phosphate) [UUUUU>p]
binding result (Lsm2-8 [8]): binds

ACCCAUUUUU (ssRNA, 3' phosphate) [U6 3' tail, 3' phosphate]
Kd (Lsm2-8 [5]): 152 nM
